Changes are numbered by the printed parent chain. In names and notes the source's numbering stands. Where two headings read alike, the source gives them in different places. Blank lines part the entries; values can stand above or below the binder they belong to.
Key:
[1] = biological target: T1, human CD3 on T-cell lines (CD3-expressing Jurkat cells; HUT78 cells) (human, UniProt P07766 23-207); assay: flow cytometry, HUT78 cells
T1 construct: On cells it stands in the CD3/TCR complex

[2] = biological target: T2, human CD3 epsilon (Acro Cat #CDE-H5223) (human, UniProt P07766 23-126); assay: SPR (Biacore), antibody captured, human CD3 epsilon analyte
T2 construct: Bought recombinant protein; also called rhCD3E
T2 sequence (P07766 23-126 limits assumed): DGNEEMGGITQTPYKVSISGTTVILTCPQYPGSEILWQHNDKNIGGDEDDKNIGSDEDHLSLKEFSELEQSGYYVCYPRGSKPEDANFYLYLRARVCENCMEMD
Protocol: (§1) Anti-Fab or anti-Fc polyclonal antibodies were immobilized onto a CM5 chip (GE Life Sciences) using amine coupling chemistry (from Amine Coupling Kit, GE Life Sciences). The immobilization steps were carried out at a flow rate of 25 μl/min in 1×HBS-EP+ buffer (GE Life Sciences; 10× Stock diluted before use). The sensor surfaces were activated for 7 min with a mixture of NHS (0.05 M) and EDC (0.2 M). The Anti-Fab or Anti-Fc antibodies were injected over all 4 flow cells at a concentration of 25 μg/mL in 10 mM sodium acetate, pH 4.5, for 7 min. Ethanolamine (1 M, pH 8.5) was injected for 7 min to block any remaining activated groups.
(§2) Off-rate and kinetic binding experiments were performed at 25° C. using 1×HBS-EP+ buffer. Test and control antibodies were injected over the anti-Fab or anti-Fc surface at concentrations of 5-10 μg/mL for 12 seconds at a flow rate of 10 μL/min on flow cells 2, 3 and 4, followed by a buffer wash for 30 seconds at the same flow rate. […] After capturing ligand (antibody) on the anti-Fc or anti-Fab surface, the analyte (human CD3 epsilon, Acro Cat #CDE-H5223) was bound for 180 seconds, followed by a 600 second dissociation phase at a flow rate of 50 μL/min. Between each ligand capture and analyte binding cycle, regeneration was carried out using two injections of 10 mM Glycine pH 2.0 for 30 seconds at 30 μL/min, followed by a 30 second buffer wash step.
(§3) The data was fit with the Biacore T200 Evaluation software, using a 1-1 Langmuir binding model. KD (affinity, nM) was determined as a ratio of the kinetic rate constants calculated from the fits of the association and dissociation phases.

[3] = biological target: T1, human CD3 on T-cell lines …; assay: flow cytometry, HUT78 cells; remark: listed apart in the source
[4] = biological target: T2, human CD3 epsilon (Acro Cat #CDE-H5223); assay: SPR (Biacore), antibody captured, human CD3 epsilon analyte; remark: listed apart in the source
Protocol: as §1, §2, §3

T1 sequence (P07766 23-207 limits assumed): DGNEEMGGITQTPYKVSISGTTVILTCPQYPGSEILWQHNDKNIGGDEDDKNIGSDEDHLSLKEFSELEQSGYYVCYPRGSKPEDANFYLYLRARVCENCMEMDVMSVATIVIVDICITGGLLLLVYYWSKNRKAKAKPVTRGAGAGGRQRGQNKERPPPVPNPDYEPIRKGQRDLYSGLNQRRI

B1: 2037-B10_Hc-A59D (antibody, human IgG1, lambda, V domains shown)
VH: EVQLVESGGGLVKPGGSLRLSCAASGFTFNKYAMNWVRQAPGKGLEWVARIRTKYNNYDTYYADSVKDRFTISRDDSKNTAYLQMNSLKTEDTAVYYCVRHGNFGNSYISYWAYWGQGTPVTVSS
VL: QTVVTQEPSLTVSPGGTVTLTCGSSTGAVTSGYYPNWLQQKPGQAPRGLIGGTKFLAPGTPARFSGSLLGGKAALTLSGVQPEDEAEYYCALWYSNRWVFGGGTQLTVTG
notes: human IgG1, lambda; also called SRP 2037 A59D; 2037-B10_VH-A59D
- Bmax (MFI) [1]: 742 MFI
- Kd [1]: 0.07 nM
- Kd [2]: 0.476 nM
- koff [2]: 0.000251 s⁻¹
- kon [2]: 527000 M⁻¹ s⁻¹

B3: 2037-B10_Hc-N30D (antibody, human IgG1, lambda, V domains shown)
VH: B1 VH with N30D, D59A
VL: B1 VL
notes: human IgG1, lambda; also called SRP 2037 N30D; 2037-B10_VH-N30D
- Bmax (MFI) [1]: 989 MFI
- Kd [1]: 0.22 nM
- Kd [2]: 0.36 nM
- koff [2]: 0.000189 s⁻¹
- kon [2]: 524000 M⁻¹ s⁻¹

B4: 2037-B10_Hc-N56D (antibody, human IgG1, lambda, V domains shown)
VH: B1 VH with N56D, D59A
VL: B1 VL
notes: human IgG1, lambda; also called SRP 2037 N56D; 2037-B10_VH-N56D
- Bmax (MFI) [1]: 216 MFI
- Kd [1]: 27.4 nM
- Kd [2]: 5.37 nM
- koff [2]: 0.000668 s⁻¹
- kon [2]: 124000 M⁻¹ s⁻¹

B5: 2037-B10_Hc-N106D (antibody, human IgG1, lambda, V domains shown)
VH: B1 VH with D59A, N106D
VL: B1 VL
notes: human IgG1, lambda; also called SRP 2037 N106D; 2037-B10_VH-N106D
- Bmax (MFI) [1]: 1010 MFI
- Kd [1]: 0.26 nM
- Kd [2]: 0.841 nM
- koff [2]: 0.000277 s⁻¹
- kon [2]: 329000 M⁻¹ s⁻¹

B6: 2037-B10_Lc-Y94D (antibody, V domains shown)
VH: not shown
VL: B1 VL with Y94D
notes: human IgG1, lambda; also called SRP 2037 Y94D; 2037-B10 VL-Y94D
- Bmax (MFI) [1]: 1600 MFI
- Kd [1]: 0.7 nM

B7: 2037-B10_Hc-K31D (antibody, human IgG1, lambda, V domains shown)
VH: B1 VH with K31D, D59A
VL: B1 VL
notes: human IgG1, lambda; also called SRP 2037 K31D; 2037-B10_VH-K31D
- Bmax (MFI) [1]: 1060 MFI
- Kd [1]: 0.94 nM
- Kd [2]: 1.39 nM
- koff [2]: 0.000377 s⁻¹
- kon [2]: 271000 M⁻¹ s⁻¹

B8: 2037-B10_Hc-A33D (antibody, human IgG1, V domains shown)
VH: B1 VH with A33D, D59A
VL: B1 VL
notes: human IgG1, lambda; also called SRP 2037 A33D; 2037-B10_VH-A33D
- Bmax (MFI) [1]: 103 MFI
- Kd [1]: 8.57 nM

B10: SRP 2037-B10 F29D/R97D (antibody, human IgG1, lambda, V domains shown)
VH: B1 VH with F29D, D59A
VL: B1 VL with R97D
notes: human IgG1, lambda
- Kd [4]: 185 nM
- koff [4]: 0.000761 s⁻¹
- kon [4]: 4110 M⁻¹ s⁻¹

B11: 2037-B10_Hc-R50D (antibody, human IgG1, lambda, V domains shown)
VH: B1 VH with R50D, D59A
VL: B1 VL
notes: human IgG1, lambda; also called SRP 2037 R50D; 2037-B10_VH-R50D
- Bmax (MFI) [1]: 119 MFI
- Kd [1]: 6.61 nM

B12: 2037-B10_Hc-G105D (antibody, human IgG1, lambda, V domains shown)
VH: B1 VH with D59A, G105D
VL: B1 VL
notes: human IgG1, lambda; also called SRP 2037 G105D; 2037-B10_VH-G105D
- Bmax (MFI) [1]: 1010 MFI
- Kd [1]: 0.36 nM
- Kd [2]: 0.767 nM
- koff [2]: 0.000207 s⁻¹
- kon [2]: 270000 M⁻¹ s⁻¹

B13: 2037-B10_Lc-N96D (antibody, V domains shown)
VH: not shown
VL: B1 VL with N96D
notes: human IgG1, lambda; also called SRP 2037 N96D; 2037-B10 VL-N96D
- Bmax (MFI) [1]: 1220 MFI
- Kd [1]: 0.43 nM
- Kd [2]: 0.596 nM
- koff [2]: 0.000265 s⁻¹
- kon [2]: 445000 M⁻¹ s⁻¹

B14: 2037-B10_Hc-Y108D (antibody, human IgG1, lambda, V domains shown)
VH: B1 VH with D59A, Y108D
VL: B1 VL
notes: human IgG1, lambda; also called 2037-B10_VH-Y108D
- Bmax (MFI) [1]: 820 MFI
- Kd [1]: 0.12 nM
- Kd [2]: 0.239 nM
- koff [2]: 0.00019 s⁻¹
- kon [2]: 796000 M⁻¹ s⁻¹

B18: 2037-B10_Lc-W93D (antibody, V domains shown)
VH: not shown
VL: B1 VL with W93D
notes: human IgG1, lambda; also called SRP 2037 W93D; 2037-B10 VL-W93D
- Bmax (MFI) [1]: 88 MFI
- Kd [1]: 21.9 nM
- kon [2]: 7720 M⁻¹ s⁻¹

B19: 2037-B10_Hc-R52D (antibody, human IgG1, lambda, V domains shown)
VH: B1 VH with R52D, D59A
VL: B1 VL
notes: human IgG1, lambda; also called SRP 2037 R52D; 2037-B10_VH-R52D
- Bmax (MFI) [1]: 142 MFI
- Kd [1]: 14.1 nM

B20: 2037-B10_Hc-N103D (antibody, human IgG1, lambda, V domains shown)
VH: B1 VH with D59A, N103D
VL: B1 VL
notes: human IgG1, lambda; also called SRP 2037 N103D; 2037-B10_VH-N103D
- Bmax (MFI) [1]: 166 MFI
- Kd [1]: 28.6 nM
- Kd [2]: 85 nM
- koff [2]: 0.000583 s⁻¹
- kon [2]: 6860 M⁻¹ s⁻¹

B21: 2037-B10_Hc-K54D (antibody, human IgG1, lambda, V domains shown)
VH: B1 VH with K54D, D59A
VL: B1 VL
notes: human IgG1, lambda; also called SRP 2037 K54D; 2037-B10_VH-K54D
- Bmax (MFI) [1]: 857 MFI
- Kd [1]: 0.37 nM
- Kd [2]: 0.856 nM
- koff [2]: 0.000289 s⁻¹
- kon [2]: 337000 M⁻¹ s⁻¹

B24: 2037-B10_Lc-R97D (antibody, V domains shown)
VH: not shown
VL: B1 VL with R97D
notes: human IgG1, lambda; also called SRP 2037 R97D; 2037-B10 VL-R97D
- Bmax (MFI) [1]: 953 MFI
- Kd [1]: 0.58 nM
- HUT78 Bmax [3]: 2080
- Kd [3]: 2.93 nM
- Kd [4]: 1.49 nM
- koff [4]: 0.000257 s⁻¹
- kon [4]: 172000 M⁻¹ s⁻¹

B25: 2037-B10_Lc-S95D (antibody, V domains shown)
VH: not shown
VL: B1 VL with S95D
notes: human IgG1, lambda; also called SRP 2037 S95D; 2037-B10 VL-S95D
- Bmax (MFI) [1]: 896 MFI
- Kd [1]: 0.29 nM

B26: 2037-B10_Hc-F27D (antibody, human IgG1, lambda, V domains shown)
VH: B1 VH with F27D, D59A
VL: B1 VL
notes: human IgG1, lambda; also called SRP 2037 F27D; 2037-B10_VH-F27D
- Bmax (MFI) [1]: 1360 MFI
- Kd [1]: 1.27 nM
- Kd [2]: 1.07 nM
- koff [2]: 0.000278 s⁻¹
- kon [2]: 259000 M⁻¹ s⁻¹

Continued, values first:

- HUT78 Bmax [3]: 2000
- Kd [3]: 121 nM
- Kd [4]: 3.91 nM
- koff [4]: 0.00029 s⁻¹
- kon [4]: 74000 M⁻¹ s⁻¹
B2: SRP 2037-B10 Y61D/R97D (antibody, human IgG1, lambda, V domains shown)
VH: B1 VH with D59A, Y61D
VL: B1 VL with R97D
notes: human IgG1, lambda

- HUT78 Bmax [3]: 1190
- Kd [3]: 62.4 nM
- Kd [4]: 5.07 nM
- koff [4]: 0.000441 s⁻¹
- kon [4]: 87000 M⁻¹ s⁻¹
B9: SRP 2037-B10 Y55D/R97D (antibody, human IgG1, lambda, V domains shown)
VH: B1 VH with Y55D, D59A
VL: B1 VL with R97D
notes: human IgG1, lambda

- HUT78 Bmax [3]: 772
- Kd [3]: 312 nM
B15: SRP 2037-B10 Y61D/LC5 (antibody, human IgG1, kappa, V domains shown)
VH: B1 VH with D59A, Y61D
VL: DTQVTQSPSLSASVGDRVTITCGSSTGAVTSGYYPNWLQQKPGQAPRGLIGGTKFLAPGVPSRFSGSGSGTDFTLTISSLQPEDFATYYCALWYSNRWVFGGGTKVEIKR
notes: human IgG1, kappa

- HUT78 Bmax [3]: 442
- Kd [3]: 174 nM
B16: SRP 2037-B10 Y55D/LC5 (antibody, human IgG1, kappa, V domains shown)
VH: B1 VH with Y55D, D59A
VL: B15 VL
notes: human IgG1, kappa

- HUT78 Bmax [3]: 523
- Kd [3]: 226 nM
B17: SRP 2037-B10 F104D/LC5 (antibody, human IgG1, kappa, V domains shown)
VH: B1 VH with D59A, F104D
VL: B15 VL
notes: human IgG1, kappa

- HUT78 Bmax [3]: 1800
- Kd [3]: 38.1 nM
- Kd [4]: 15.8 nM
- koff [4]: 0.000474 s⁻¹
- kon [4]: 30100 M⁻¹ s⁻¹
B22: SRP 2037-B10 S107D/R97D (antibody, human IgG1, lambda, V domains shown)
VH: B1 VH with D59A, S107D
VL: B1 VL with R97D
notes: human IgG1, lambda

- HUT78 Bmax [3]: 404
- Kd [3]: 86.4 nM
B23: SRP 2037-B10 S107D/LC5 (antibody, human IgG1, kappa, V domains shown)
VH: B1 VH with D59A, S107D
VL: B15 VL
notes: human IgG1, kappa

- HUT78 Bmax [3]: 2710
- Kd [3]: 126 nM
- Kd [4]: 6.99 nM
- koff [4]: 0.000115 s⁻¹
- kon [4]: 16400 M⁻¹ s⁻¹
B27: SRP 2037-B10 F104D/R97D (antibody, human IgG1, lambda, V domains shown)
VH: B1 VH with D59A, F104D
VL: B1 VL with R97D
notes: human IgG1, lambda
